Here are results for 3 molecules from paper PMC6711944, “Structural insights into the species preference of the influenza B virus NS1 protein in ISG15 binding” (Protein & Cell, 2018).

Data set [1] deals with T1, NS1B-NTR (1-103), N-terminal region of the influenza B virus NS1 protein (influenza B virus, UniProt P03502 1-103).
T1 construct: not shown: GST, N-terminal, cleaved
T1 sequence: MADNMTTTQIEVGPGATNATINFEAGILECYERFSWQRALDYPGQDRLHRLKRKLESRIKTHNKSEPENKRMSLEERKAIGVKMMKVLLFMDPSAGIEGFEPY
The data set can be described thus: ITC; about 0.5 mM ISG15 injected into 250 ul of 0.05 mM NS1B-NTR in the cell, 20 aliquots of 2 ul; 25 °C; 10 mM HEPES-sodium, 500 mM NaCl, pH 7.2; MicroCal iTC200; 'one set of sites' fitting model. Particulars: both partners purified. (In general: ITC needs no label: the signal is the heat of the interaction.)

Data set [2] deals with the molecule itself. The data set can be described thus: crystal structure; crystal structures of NS1B-NTR in complex with mISG15, cISG15 or bISG15.
The target of data set [3] is T2, hISG15 with the first two linker residues (Asp76, Lys77) converted to alanine (human, UniProt P05161 1-157, Asp76 to alanine | Lys77 to alanine).
T2 construct: also called the mutated hISG15
Nature of the data set: ITC; isothermal titration calorimetry of NS1B-NTR and ISG15 proteins; which was titrated and the conditions are not told in the text shown. Particulars: both partners purified.

A further data set has as its target T3, bovine ISG15 (bovine, UniProt O02741 1-154).
T3 construct: also called bISG15
The description is as above. Particulars: both partners purified.

The next data set addresses T4, murine ISG15 (murine, UniProt Q64339 1-155).
T4 construct: also called mISG15
The description is as above. The settings on record: both partners purified.

Another data set has as its target T5, hISG15-L10A (human, UniProt P05161 1-157, L10A).
T5 construct: Mutant of m2
The data set is described as above. The settings on record: both partners purified.

For a further data set, the target named is T6, human ISG15 (human, UniProt P05161 1-157).
T6 construct: also called hISG15
Described as above. Particulars: both partners purified.

A further data set deals with T7, canine ISG15 (canine, UniProt A0A8I3P342 1-174).
T7 construct: also called cISG15
Described as above. Particulars: both partners purified.

T7 sequence (A0A8I3P342 entry or part of it): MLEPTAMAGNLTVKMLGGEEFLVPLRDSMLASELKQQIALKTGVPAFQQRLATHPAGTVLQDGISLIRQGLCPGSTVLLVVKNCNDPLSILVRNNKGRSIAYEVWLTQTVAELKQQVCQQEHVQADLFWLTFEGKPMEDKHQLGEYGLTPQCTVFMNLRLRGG
T6 sequence (P05161 1-157): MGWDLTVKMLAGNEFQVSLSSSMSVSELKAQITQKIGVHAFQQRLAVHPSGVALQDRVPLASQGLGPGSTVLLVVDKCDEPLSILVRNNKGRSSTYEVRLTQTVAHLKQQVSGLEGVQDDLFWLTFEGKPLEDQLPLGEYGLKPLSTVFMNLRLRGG
T5 sequence (P05161 1-157 L10A): as the sequence (P05161 1-157) above, with L10A counted along it
T2 sequence (P05161 other isoform, or with tags, fused parts or gaps with the stated changes): as the sequence (P05161 1-157) above, with D76A, K77A counted along it

B1: bISG15-Q76A-N77A (natural protein)
chain: MGGDLTVKMLGGQEILVPLRDSMTVSELKQFIAQKINVPAFQQRLAHLDSREVLQEGVPLVLQGLRAGSTVLLVVAASISILVRNDKGRSSPYEVQLKQTVAELKQQVCQKERVQADQFWLSFEGRPMDDEHPLEEYGLMKGCTVFMNLRLRGG
notes: not shown: GST, N-terminal, cleaved
Consider B1, for which the Kd (as a rule, the equilibrium constant for the complex coming apart) in data set [1] amounted to 10 µM.

B2: NS1B-NTR, containing the 103 N-terminal residues of NS1B (influenza B virus NS1 protein) (domain or fragment)
chain: T1 sequence
notes: the same region as in the cited hISG15/NS1B-NTR structure PDB 3RT3
Consider B2, for which the stoichiometry N (in general, a count of units in the complex or per binding partner) in data set [2] turned out to be 2; with bovine ISG15, 1; in the data set with murine ISG15 it was 1; with human ISG15, 1; in the data set with canine ISG15, 1. For the same molecule, the Kd stood at 5 µM in data set [3]; 12 µM with bovine ISG15; 13 µM with murine ISG15; 17 µM with hISG15-L10A; 0.28 µM in the data set with human ISG15; 34 µM with canine ISG15.

B3: mISG15-Q74A-N75A (natural protein)
chain: MAWDLKVKMLGGNDFLVSVTNSMTVSELKKQIAQKIGVPAFQQRLAHQTAVLQDGLTLSSLGLGPSSTVMLVVAASSEPLSILVRNERGHSNIYEVFLTQTVDTLKKKVSQREQVHEDQFWLSFEGRPMEDKELLGEYGLKPQCTVIKHLRLRGG
notes: as for B1
In the case of B3, the affinity in data set [1], expressed as Kd, was 6 µM.
